In patent US20200230184A1:

Target: human ApoB100 (human) (UniProt P04114)
Experiment: cell-based or functional assay

Chain of UniProt P04114 (P04114 28-4563 limits assumed): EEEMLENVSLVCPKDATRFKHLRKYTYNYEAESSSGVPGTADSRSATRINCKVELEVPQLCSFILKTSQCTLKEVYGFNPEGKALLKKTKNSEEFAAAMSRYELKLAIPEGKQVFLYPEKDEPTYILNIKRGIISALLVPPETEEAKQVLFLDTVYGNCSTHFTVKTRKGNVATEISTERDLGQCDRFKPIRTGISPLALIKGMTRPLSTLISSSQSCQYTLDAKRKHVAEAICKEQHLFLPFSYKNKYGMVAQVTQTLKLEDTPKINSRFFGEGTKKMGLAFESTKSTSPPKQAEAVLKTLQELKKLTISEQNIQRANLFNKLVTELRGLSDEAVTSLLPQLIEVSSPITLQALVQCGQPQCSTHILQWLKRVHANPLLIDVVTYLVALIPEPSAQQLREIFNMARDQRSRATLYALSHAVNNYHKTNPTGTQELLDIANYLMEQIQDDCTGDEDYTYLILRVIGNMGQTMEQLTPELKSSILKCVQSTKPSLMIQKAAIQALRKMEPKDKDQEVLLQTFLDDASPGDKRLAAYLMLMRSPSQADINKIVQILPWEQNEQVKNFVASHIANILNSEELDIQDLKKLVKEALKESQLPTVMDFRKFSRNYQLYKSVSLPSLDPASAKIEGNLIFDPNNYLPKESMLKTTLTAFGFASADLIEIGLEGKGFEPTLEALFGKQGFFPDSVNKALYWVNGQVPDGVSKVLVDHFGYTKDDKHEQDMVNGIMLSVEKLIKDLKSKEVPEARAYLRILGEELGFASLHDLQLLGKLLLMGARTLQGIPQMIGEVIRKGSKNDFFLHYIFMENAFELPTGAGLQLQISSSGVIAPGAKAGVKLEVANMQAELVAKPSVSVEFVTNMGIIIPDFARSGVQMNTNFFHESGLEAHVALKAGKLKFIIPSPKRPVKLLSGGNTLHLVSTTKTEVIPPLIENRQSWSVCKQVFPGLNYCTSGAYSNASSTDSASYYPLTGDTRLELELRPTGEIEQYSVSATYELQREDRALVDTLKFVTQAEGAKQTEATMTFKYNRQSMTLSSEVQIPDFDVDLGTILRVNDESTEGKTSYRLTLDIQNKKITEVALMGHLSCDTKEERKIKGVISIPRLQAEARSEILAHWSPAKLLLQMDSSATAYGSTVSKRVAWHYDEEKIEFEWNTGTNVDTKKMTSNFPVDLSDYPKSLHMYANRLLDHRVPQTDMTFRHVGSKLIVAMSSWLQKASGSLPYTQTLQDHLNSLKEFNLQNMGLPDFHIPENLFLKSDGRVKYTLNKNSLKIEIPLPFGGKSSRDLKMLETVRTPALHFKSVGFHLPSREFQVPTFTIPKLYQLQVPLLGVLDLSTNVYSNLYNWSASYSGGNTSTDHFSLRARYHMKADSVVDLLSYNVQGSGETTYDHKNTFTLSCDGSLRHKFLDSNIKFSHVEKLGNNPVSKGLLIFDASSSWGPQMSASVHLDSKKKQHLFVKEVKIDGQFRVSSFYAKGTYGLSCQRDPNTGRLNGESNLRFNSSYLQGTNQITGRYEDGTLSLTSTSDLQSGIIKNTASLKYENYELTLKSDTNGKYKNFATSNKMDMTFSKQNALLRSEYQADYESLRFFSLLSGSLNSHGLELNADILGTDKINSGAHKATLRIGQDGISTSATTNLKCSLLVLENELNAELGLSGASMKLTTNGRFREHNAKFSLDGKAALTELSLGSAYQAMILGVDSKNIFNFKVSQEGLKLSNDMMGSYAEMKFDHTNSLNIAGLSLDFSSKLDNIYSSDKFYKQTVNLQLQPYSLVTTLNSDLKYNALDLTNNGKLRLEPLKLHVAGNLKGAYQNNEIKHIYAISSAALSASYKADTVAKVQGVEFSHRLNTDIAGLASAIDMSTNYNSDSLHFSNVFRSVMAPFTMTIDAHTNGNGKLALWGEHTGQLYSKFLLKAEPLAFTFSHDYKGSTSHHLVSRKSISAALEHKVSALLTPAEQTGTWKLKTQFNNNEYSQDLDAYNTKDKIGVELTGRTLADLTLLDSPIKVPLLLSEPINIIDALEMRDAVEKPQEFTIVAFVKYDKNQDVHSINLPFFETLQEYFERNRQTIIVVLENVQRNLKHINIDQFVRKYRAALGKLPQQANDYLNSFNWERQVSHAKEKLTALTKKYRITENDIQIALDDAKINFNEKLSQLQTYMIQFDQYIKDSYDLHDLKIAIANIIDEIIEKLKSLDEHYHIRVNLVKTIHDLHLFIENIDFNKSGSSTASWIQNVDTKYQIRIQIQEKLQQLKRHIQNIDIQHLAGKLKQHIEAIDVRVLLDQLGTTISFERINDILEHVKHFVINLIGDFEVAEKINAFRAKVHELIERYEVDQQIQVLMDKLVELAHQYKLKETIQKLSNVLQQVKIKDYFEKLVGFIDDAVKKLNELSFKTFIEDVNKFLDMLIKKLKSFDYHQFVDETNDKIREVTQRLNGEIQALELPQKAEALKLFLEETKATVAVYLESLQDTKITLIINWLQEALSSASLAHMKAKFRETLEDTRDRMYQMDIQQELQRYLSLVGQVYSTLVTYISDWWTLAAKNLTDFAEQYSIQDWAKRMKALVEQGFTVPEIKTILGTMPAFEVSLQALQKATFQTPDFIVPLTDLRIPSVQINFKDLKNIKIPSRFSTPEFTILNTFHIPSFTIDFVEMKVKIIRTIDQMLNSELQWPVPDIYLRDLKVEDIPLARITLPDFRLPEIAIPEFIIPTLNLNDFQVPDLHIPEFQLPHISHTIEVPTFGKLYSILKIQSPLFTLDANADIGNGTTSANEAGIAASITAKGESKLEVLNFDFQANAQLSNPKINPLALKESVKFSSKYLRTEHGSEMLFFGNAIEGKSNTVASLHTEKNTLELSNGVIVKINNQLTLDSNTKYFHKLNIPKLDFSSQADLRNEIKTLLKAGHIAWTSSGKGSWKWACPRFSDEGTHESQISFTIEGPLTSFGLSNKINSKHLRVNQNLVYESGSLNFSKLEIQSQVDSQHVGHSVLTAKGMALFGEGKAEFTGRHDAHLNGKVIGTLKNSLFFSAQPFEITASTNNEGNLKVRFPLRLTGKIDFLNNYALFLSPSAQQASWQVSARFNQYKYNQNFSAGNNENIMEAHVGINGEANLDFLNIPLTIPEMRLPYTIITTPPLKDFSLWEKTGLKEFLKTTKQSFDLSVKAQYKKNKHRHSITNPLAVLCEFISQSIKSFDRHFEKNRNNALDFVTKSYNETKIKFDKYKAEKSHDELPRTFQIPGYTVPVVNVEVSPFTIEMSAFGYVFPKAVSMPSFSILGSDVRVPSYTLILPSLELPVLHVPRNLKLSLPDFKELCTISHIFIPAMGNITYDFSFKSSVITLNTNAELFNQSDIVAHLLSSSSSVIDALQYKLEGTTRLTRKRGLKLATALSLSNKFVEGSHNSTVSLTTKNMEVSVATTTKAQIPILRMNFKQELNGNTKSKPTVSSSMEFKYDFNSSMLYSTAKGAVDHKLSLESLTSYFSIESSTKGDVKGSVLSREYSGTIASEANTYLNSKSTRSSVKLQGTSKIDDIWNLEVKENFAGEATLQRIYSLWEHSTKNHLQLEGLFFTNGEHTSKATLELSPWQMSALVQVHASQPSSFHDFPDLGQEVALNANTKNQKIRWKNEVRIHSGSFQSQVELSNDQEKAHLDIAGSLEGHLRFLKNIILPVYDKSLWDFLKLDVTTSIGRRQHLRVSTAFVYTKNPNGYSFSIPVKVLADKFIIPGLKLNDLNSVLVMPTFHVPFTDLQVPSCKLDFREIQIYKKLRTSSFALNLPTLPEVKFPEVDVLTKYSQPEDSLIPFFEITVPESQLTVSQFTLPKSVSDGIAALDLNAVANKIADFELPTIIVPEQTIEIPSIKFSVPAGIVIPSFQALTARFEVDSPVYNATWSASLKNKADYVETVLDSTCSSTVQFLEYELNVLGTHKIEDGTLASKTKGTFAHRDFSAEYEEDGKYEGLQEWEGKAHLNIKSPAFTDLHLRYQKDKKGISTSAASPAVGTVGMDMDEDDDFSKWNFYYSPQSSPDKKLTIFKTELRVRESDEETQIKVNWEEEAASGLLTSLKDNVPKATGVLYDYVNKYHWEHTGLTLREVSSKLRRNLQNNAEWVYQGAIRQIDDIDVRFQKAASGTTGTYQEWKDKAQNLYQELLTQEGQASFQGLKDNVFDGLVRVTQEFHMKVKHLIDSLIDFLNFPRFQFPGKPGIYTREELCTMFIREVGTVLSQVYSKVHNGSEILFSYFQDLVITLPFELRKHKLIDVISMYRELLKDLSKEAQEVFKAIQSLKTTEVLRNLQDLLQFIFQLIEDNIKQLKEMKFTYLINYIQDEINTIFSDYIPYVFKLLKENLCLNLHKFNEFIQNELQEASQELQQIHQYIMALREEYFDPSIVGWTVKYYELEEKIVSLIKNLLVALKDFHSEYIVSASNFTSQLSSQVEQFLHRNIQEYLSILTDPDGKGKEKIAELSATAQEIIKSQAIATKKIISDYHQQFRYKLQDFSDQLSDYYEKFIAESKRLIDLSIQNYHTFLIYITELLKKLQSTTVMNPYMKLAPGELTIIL

- reduction of serum cholesterol in LAHB mice after AAV8.TBG.hLDLR (% reduction of serum cholesterol): 30
Substance: human low density lipoprotein receptor (hLDLR) (from UniProt P01130 22-860)
